The experiment deals with recombinant human soluble FcγRIIIa glycoprotein with a C-terminal hexahistidine tag (N-glycosylation sites kept at Asn45 and Asn162 only) (human). The experiment is described as follows: high-speed atomic force microscopy (HS-AFM), bound-state dwell time.

A word on the stoichiometry N: it is the number of molecules, sites or subunits per partner or assembly.

Regarding “rituximab, anti-CD20 mouse/human-chimeric IgG1 (G1m17,1; Km3) (antibody)”, the dwell time turned out to be 1 s and the stoichiometry N was 1.
In the same order, the values of “trastuzumab, anti-HER2 humanized IgG1 (G1m17,1; Km3) (antibody)” are 1 s and 1.

The record behind these values is publication PMC6697678.
